We go through 5 molecules from patent US20240254259A1 (NATIONAL RESEARCH COUNCIL CANADA, published 2024).

In assay [1] the target is full length human DPEP-1 displayed on HEK293T / HEK293-6E cells (human) (UniProt P16444). The assay can be described thus: flow cytometry, biotinylated negative control VHH at 100 nM on HEK-293T cells overexpressing human DPEP-1, streptavidin-PE; the same number stands in all seven panels. On the technique in general: A flow cytometer gives signals particle by particle.
Assay [2] addresses T1, recombinant human DPEP-1 ectodomain (human, UniProt P16444 17-385, chemically biotinylated with NHS-LC-LC-Biotin in the SPR assay).
T1 construct: range 17-385; The limits 17-385 are given for the immunogen; also called hDPEP-1 ectodomain; hDPEP-1 ECD
T1 sequence (looked up): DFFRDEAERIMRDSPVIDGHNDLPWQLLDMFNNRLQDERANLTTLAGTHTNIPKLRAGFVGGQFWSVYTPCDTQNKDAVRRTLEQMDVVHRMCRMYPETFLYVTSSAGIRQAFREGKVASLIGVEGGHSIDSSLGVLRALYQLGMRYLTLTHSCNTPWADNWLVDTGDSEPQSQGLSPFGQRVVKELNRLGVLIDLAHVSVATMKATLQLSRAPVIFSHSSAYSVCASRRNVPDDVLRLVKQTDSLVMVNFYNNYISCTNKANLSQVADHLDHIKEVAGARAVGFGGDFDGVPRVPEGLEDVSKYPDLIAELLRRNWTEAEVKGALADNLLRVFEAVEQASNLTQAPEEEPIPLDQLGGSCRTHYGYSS
Nature of the assay: SPR single-cycle kinetics; biotinylated h-DPEP1 captured on the chip, VHH flowed over; 1:1 binding model, 25 C; one replicate of three [con't]. As for the experimental part:
(§1) Recombinant human DPEP-1 was biotinylated as described in Example 3 and captured on CM5 sensorchip surfaces using Biotin CAPture reagent followed by flowing over surfaces VHHs at concentrations ranging from 0.625-10 nM (sdABP02), 2.5-40 nM (sdABP03/05/07), 6.25-100 nM (sdABP06) and 12.5-200 nM (sdABP01/04). Dark lines represent data points, light lines fit to the data. Data were generated in triplicates and data for one replicate set are shown.
(§2) The binding affinity of DPEP-1-specific VHHs was analyzed by surface plasmon resonance (SPR). Recombinant human DPEP-1 (hDPEP-1) ectodomain was chemically biotinylated using EZ-Link™ NHS-LC-LC-Biotin (Thermo Fisher, Cat #21343) following manufacturer instructions. Biotinylated recombinant hDPEP-1 ectodomain was then captured on CM5 sensorchip surfaces using Biotin CAPture reagent followed by flowing over surfaces VHHs at concentrations ranging from 0.625-10 nM (sdABP02), 2.5-40 nM (sdABP03/05/07), 6.25-100 nM (sdABP06) and 12.5-200 nM (sdABP01/04). Dark lines represent data points, light lines fit to the data. Data were generated in triplicates. Diagonal lines represent equilibrium dissociation constants, KDs. KD values (mean±SD) obtained in FIG. 2A are shown in Table 4. sdABP01 binding data gave poor fit to the 1:1 binding model. As a result, its KD could not be determined with certainty. A better fit was observed using the heterogeneous ligand binding model.

Assay [3] concerns the target T2, full length human DPEP-1 displayed on HEK293T / HEK293-6E cells (human, UniProt P16444 17-385).
T2 construct: whole, on cells; GPI-anchored on the cell surface; also called hDPEP-1
T2 sequence (looked up): T1 sequence (looked up)
The assay can be described thus: flow cytometry, biotinylated VHH titrated on HEK-293-6E cells overexpressing hDPEP-1. As for the experimental part: (§3) VHH concentrations at 50% binding, EC₅₀ values, were calculated from graphs and recorded in Table 5.
(§4) Binding of biotinylated VHHs to hDPEP-1 was detected using streptavidin-phycoerythrin (SPE). The binding profile of the anti-DPEP-1 rabbit pAb (Proteintech, Cat #12222-1-AP) positive control is shown as inset. Binding of the rabbit pAb was detected using goat anti-rabbit IgG antibody conjugated to phycoerythrin (Thermo Fisher, Cat #P-2771MP). Graphs in FIG. 3B with similar maximal fluorescence plateau are grouped together and shown in FIG. 3C (A20.1 VHH is shown for comparison). Three independent experiments were performed and data were collected on a Beckman CytoFLEX Analyzer followed by analysis with FlowJo v10.6.2 (TreeStar). EC₅₀ values were calculated from FIG. 3C and recorded in Table 5. Based on the binding measured by flow cytometry, four affinity groups may be identified: medium (sdABP01/03), high (sdABP02/04/07), high-very high (sdABP05), and very high (sdABP06).

Assay [4] addresses T2, full length human DPEP-1 displayed on …. The assay can be described thus: flow cytometry on human DPEP-1-expressing cells, monomeric VHH (Table 8 restating Table 5). Here is the method:
as §3, §4

Assay [5] addresses T1, recombinant human DPEP-1 ectodomain. Nature of the assay: SPR, single-cycle kinetics, biotinylated hDPEP-1 ectodomain captured, VHH flowed; mean ± SD of triplicates. As for the experimental part: as §2
(In SPR one partner is held on a chip, and binding of the other changes the refractive index at the surface.)

The target is the same in assay [6]. The assay can be described thus: SPR single-cycle kinetics; biotinylated h-DPEP1 captured on the chip, VHH flowed over; 1:1 binding model, 25 C; one replicate of three. Here is the method: as §1, §2

For “Clostridium difficile toxin A-specific A20.1 VHH”, the geometric mean fluorescence intensity (number above the histogram) in assay [1] stood at 106.

B1: sdABP03 (VHH with BAP and His6 tags) (VHH)
VHH: EVQLVESGGGLVQPGGSLRLSCATSEFTLDYYAIGWFRQAPGKEREGVSCISSSGGTTNYADSVKGRFTISSDNAKNTVSLQMNSLRPEDTAVYYCAAARVSAYYLGNYGCLNAEYGYWGQGTQVTVSS
modifications: biotin on the Biotinylation Acceptor Peptide in the flow cytometry and immunoprecipitation assays
notes: Monomeric llama VHH with BAP and His6; also called sdAb03
With B1, the values for the Kd in assay [2] and in assay [5] were 26.9 nM and 27 nM, respectively. For the same molecule, the koff (as a rule, the rate constant with which the complex falls apart) in assay [2] was 0.0605 s⁻¹. The kon (in general, the second-order rate constant of association) in assay [2] came to 2.25e+06 M⁻¹ s⁻¹. Also, the EC50 in assay [3] and in assay [4] was 550 nM in each case.

B2: sdABP07 (VHH with BAP and His6 tags) (VHH)
VHH: EVQLVESGGGLVEYGGSLRLSCAASESTLDNYAIAWFRQAPGKEREVVSCVGKSGGRSDYADSVKGRFTISRDNAKNTVYLQMNSLKPEDTAVYSCAARRVWFGGCVLGTSQGQYDYWGQGTQVTVSS
modifications: biotin on the Biotinylation Acceptor Peptide in the flow cytometry and immunoprecipitation assays
notes: Monomeric llama VHH with BAP and His6; also called sdAb07
With B2, the results for the Kd in assay [2] and in assay [5] were 5.05 nM and 5.09 nM, respectively. Further, the koff in assay [2] turned out to be 0.00835 s⁻¹. Moreover, the kon in assay [2] is 1.65e+06 M⁻¹ s⁻¹. Moreover, the EC50 in assay [3] and in assay [4] was 15 nM in each case.

B3: sdABP05 (VHH with BAP and His6 tags) (VHH)
VHH: EVQLVESGGGLVQPGGSLRLSCAASGFTFSTYAMTWVRKAPGKGFEWISSIDSGGGVTLYADSVKGRFTISKDNAKNTLYLQMNNLKPDDTAVYYCVKNYGSTSLQSRGQGTQVTVSS
modifications: biotin on the Biotinylation Acceptor Peptide in the flow cytometry and immunoprecipitation assays
notes: Monomeric llama VHH with BAP and His6; also called sdAb05
Turning to B3, the EC50 – broadly, the concentration that produces a half-maximal response – in assay [3] amounted to 5.3 nM. For the same molecule, the response in assay [4] was half-maximal at 5.3 nM (EC50). For the same molecule, in assay [6], the equilibrium dissociation constant (Kd) (in general, the constant that tells how readily two partners part at equilibrium) is 12.8 nM; the koff turned out to be 0.0276 s⁻¹; the kon worked out at 2.15e+06 M⁻¹ s⁻¹. Moreover, the Kd in assay [5] was found to be 10.6 nM.

B4: sdABP06 (VHH with BAP and His6 tags) (VHH)
VHH: EVQLVDSGGGLVQPGGSLRLSCAASGFTFSNYDMSWVRQGPGKGPEWVSIISYVGGLTRYSDSVKGRFTISRDNAKNTLYLQMNSLNTEDTALYYCARVKSMHPTSTTGEYDYRGRGTQVTVSS
modifications: biotin on the Biotinylation Acceptor Peptide in the flow cytometry and immunoprecipitation assays
notes: Monomeric llama VHH with BAP and His6; also called sdAb06
Regarding B4, in assay [2], the Kd came out at 5.91 nM, the koff came to 0.00103 s⁻¹ and the kon was determined as 175000 M⁻¹ s⁻¹. In assay [3], this molecule displayed an EC50 of 0.96 nM. Moreover, the EC50 in assay [4] came to 0.96 nM. In assay [5], the Kd stood at 6.32 nM.
